From a protein production outcome set (Wang et al. 2014)

Assay: label from the status in PepcDB records

Sequence	protein production
MSQEQRMQKTFEVENHLGYRILRWVLLVALLSGILMSAVQVVLDAKRVSAELERDAAQTLAMVEDSATQAVFSIDDTLAQQVVDGLFALEPIHMAKITHPDGDELGDRLRPLQDSPFRPLTDPIFGQVREYRESLTRGSNPDLVYGYLEVHYDTAPYARTWLGRALVTFASGIALALILGIVLFVVFHLLLTRPLLRIVQSVKKVDPAHPDDRLVSIPEGHRADELGLWVNATNNLLVAIGDTQKKHREAEDRVTRLARYDTLTGLPSRDAFMEDLQGAIERAQEGHSSIALMVCGIDDFKSVNEQCGFRTGDTILQTVASRLTANLSSDRFNVARLGSDQFVIVEKHLRDGFQAAETAEKVLATIGSPINSGNHRISMTATLGISLFPSDADQADRLLQSAEQTMALAKQTGHNHFQFYVASIDKEIRERKQMEKDLAQALANHEFHLVYQPQINLETRRVIGAEALLRWEHPEHGMIPPDLFIPVAEANGSIVEIGQWVLDQACWQAARWASEGTHLRIAVNLSAVQLRQESIVDDILNTLKRHNIPAGRLELEVTETSFMTNLTDAVAKLHRLHRAGISIAVDDFGTGYSSLTYLKQMPVQHLKIDKQFIRDLLINEEDTRIANTIIDLGKSLNLTVVAEGVETAEQEYYLSQRGCALAQGYFFSKPLLPRDFANFVQTFHARIVENNA	failed
MSQFAINIMFVGGSFLLYIAIAVWAKAGSTSDFYVAGGGVHPITNGAAIGADWMSAASFISMAGLIAAGGYANSTFLMGWTGGYVLLAMLLAPYLRKFGKFTVPEFIGDRYYSANARLVAVICLIVASVTYVIGQMAGAGVAFSRFLEVDATTGLIIAAVVVFVYAVLGGMKGITYTQVAQYCVLIVAYTIPAVFISIQLTGNPIPGLGMFSTHTDSGLPLLEKLNQVITDLGFNEYTADVDNKLNMVLFTLSLMIGTAGLPHVIIRFFTVPKVADARWSGGWALVFIALLYLTAPAVASMARLNLMTTIYPDGTQAAPIEYDERPNWVKEWEVTGLIQFTDKNEDGRIQLYNDVPAFEAEAQARGWNGNELVVNRDILVLANPEIANLPGWVIGLIAAGGLAAALSTAAGLLLAISSAVSHDLIKGRFNPSISDKGELMAARISMAVAIVVATYLGANPPGFAAQVVALAFGIAAASLFPALMMGIFSKRVNNVGATLGMLSGLLFTLIYIFVYKGWLFIPGTNNLPDTPENWVLGISPLSIGAVGALVNFAVAFAVSKATAEPPVEIQELVESVRYPRGAGTAQDH	failed
MSQHLFTAFILTALAGLSTGIGSLIAFVTKHTNKTFLSVSLGFSAGVMIYVSMIEIFPTAQTILTKAMDKKSGSWLTVLAFFGGILLIAIIDKLIPSEENPHEIKTIEEEDQKPTKLMRMGLMTAIAIGIHNFPEGLATFISGLQDASIAIPIVIAIAIHNIPEGIAVSVPIYQATGSKKKAFTYSFLSGLAEPLGAIIGWFLLMPIMNNIVYGAIFSAVAGIMVFISLDELLPAAEEYGKHHLAIYGVISGMLIMAVSLLLFI	failed
MSQKIVILGSGESGVGAALLSKAKGYDTFVSDSSMITEAFIAELQQAGIAFEQGVHSEEKILSAQLIVKSPGIPEKAPIMKLIRSKAIEVISEIEFAYRHIHPGAKFIAITGSNGKTTTTLLTHHILAQLGYSVGLGGNIGTSLARQIIHEKKDVYVLELSSFQLDDMYTFKADVAVLLNITPDHLDRYEYKFENYTASKFRIFQNLTPADYYITYSEDSVIESYKKDHPVDARYVPVSLKQLYSAGAYSDEKTIQIHALDDTVVTCNTEEFPLQGKHNYINIMAALNAAVSIGADIHKSIASIKSFRNAPHRLEFVGSIYGVKFVNDSKATNVDSVWYALDSMKTPVVLIVGGVDKGNDYSQIEALVKEKVHTVVALGKDNSKVLSGFASMVSEIKEAHSMVEAIRIAHDSAKKGDTVLLSPACASFDLFKNYEDRGTQFRNLVIELAG	failed
MSQKRLSRVIYPGTFDPITNGHLDLIERAAQMFDEVIIAVAASPSKNTLFTLEERVEFARQVTSHLDNVSAKGFSGLLVDFAKAEKANVLIRGLRTTVDFEYEFGLTNMYRRLMPGLESVFLTPAEEHAFISSTLVREVAIHGGNVDEFVPAIVANALHQKKKI	failed
MSQLPTLIADLALILICAGVMTLLFKKLKQPLVLGYVVAGFLASPHMPYTPSVMDTANIKTWADIGVIFLLFALGLEFSFKKIVKVGGSAIIAACTIIFCMILLGIGVGMGFGWHRMDSLFLGGMIAMSSTTIIYKAFDDLGLRKKQFTGLVLSILILEDILAIVLMVMLSTMAVSHNFEGTEMLESIGKLLFFLILWFVVGIYLIPEFLKRCRKLMGEETLLIVSLALCFGMVVMAANTGFSAAFGAFIMGSILAETIEAESIDRLVKPVKDLFGAIFFVSVGMMVDPAMIIEYAIPIIVITIAVILGQATFGTFGVILSGKPLKTAMQCGFSLTQIGEFAFIIASLGVSLHVTSDFLYPIVVAVSVITTFLTPYMIRLAEPASSFVDAHLPASWRKFLMRYSSGSQTVLNHENLWKKLLLAMVRITVVYSIVSISIIALSFRFVVPFFKENLPHFWASLLGAVFIILCISPFLRAIMVKKNHSVEFMTLWHDNRANRAPLVSTIVIRIMIAALFVIFVISGLFKASIGLIIGVAVLAVLLMVWSRRLKKQSILIERRFFQNLRSREVRAEYLGEKKPEYAGRLLSHDLHLADLEIPGESTWAGKTLMELNLGKKYGIHIASILRGKRRINIPGGSVRLFPMDKIQVIGTDEQLNVFSSAMQSGAKIDWEMYEKGEMTLKQFIIDADSVFLGKTIRESGIRDKYHCMIAGVEREDGTLMVPDVNAPFEEGDVVWVVGEKENVYQLVDQKNEKIQVK	failed
MSQMMQMYQQVGPAQFSAMIGQFAPYFASIAPQFVELRPGYAEVTFPKRREVLNHIGTVHAIALCNAAELAAGTMTDASIPAGHRWIPRGMTVEYLAKATGDVRAVADGSQIDWQATGNLVVPVVAYVDDKPVFRAEITMYVSQA	not failed
MSQNLQETSQAYPRHRPGSHAGPKSLKVTPRATMYTFLPDNFSPAKPKPTKELRPLLCSAVLGLLLVLAAVVAWCYYSASLRKAERLRAELLDLNRGGFSIRNQKGEQVFRLAFRSGALDLDSCSRDGALLGCSRAADGRPLHFFIQTVRPKDTVMCYRVRWEEAVPGRAVEHAMFLGDAAAHWYGGAEMRTQHWPIRLDGQQEPQPFVTSDVYSSDAAFGGILERYWLSSRAAAIKVNDSVPFHLGWNSTERSMRLQARYHDTSYKPPAGRTAAPELSYRVCVGSDVTSIHKYMVRRYFNKPSRVPASEAFRDPIWSTWALHGRAVDQNKVLQFAQQIRQHRFNSSHLEIDDMYTPAYGDFNFDEGKFPNASDMFRRLRDAGFRVTLWVHPFVNYNSSSFGEGVERELFVREPTGRLPALVRWWNGIGAVLDFTHPEAREWFQGHLRRLRLRYNVTSFKFDAGEVSYLPRDFSTYRPLSDPSVWSRRYTEMAEPFFSLAEVRVGYQSQNISCFFRLVDRDSVWGYDLGLRSLIPAVLTVSMLGYPFILPDMIGGNAVPERTAGRQDGPGPERELYVRWLEVAAFMPAMQFSIPPWQYDAEVVAIAHKFAALRASLVAPLLLELAGEITDTGDPIVRPLWWIAPGDETAHRIDSQFLIGDTLLVAPVLEPGKQERDVYLPAGKWRSYKGELFDKTPVLLTDYPVDLDEVAYFTWAS	failed
MSQPTPAVRTFQDLILALQQYWAEQGCVVLQPYDMEVGAGTFHTATFLRAIGPETWNAAYVQPSRRPTDGRYGENPNRLQHYYQFQVVLKPNPENFQELYLGSLKHVGLDPLVHDIRFVEDNWESPTLGAWGLGWEVWLNGMEVTQFTYFQQAGGIECYPVTGEITYGLERLAMYLQGVDSVYDLVWADGPFGKVTYGDVFHQNEVEQSTYNFEHANVEKLFELFDFYESEAKRLIELDQPLPLPSYEMVLKASHTFNLLDARRAISVTARQQYILRVRTLARSVAQAYLLARAKLGFPMATPDLRDEVLAKLEAAQ	failed
MSQRKYFGTDGVRGEVGGPVINAAFALRLGYAAGRVLAREHREHASGRGRNRPQVVIGKDTRISGYMLESALEAGLSAAGIDVLLAGPVPTPAVAYLTRTLRLAAGIVISASHNPYQDNGIKFFSAHGMKLPDDIEAAIEQALDEPLGCVGSEELGRARRMADAQGRYIEFCKSTFPHDLDLNGLKLVVDAAHGAAYNVAPHVFRELGAEVHAIGVSPDGFNINKGVGALHPESLAEEVRARGADLGIALDGDADRLQMVDGTGRIYNGDELLYAIVRERMQRGPVAGVVGTLMTNYGLERQLQQIGVGFERANVGDRYVLEQMQARGWLYGGESSGHLLCLDCHTTGDGTIAALQVLTALRRADATLAEWVADLRMYPQKMINVPLAPGLDWKTHDGLARARGAVEAELAGRGRVLIRASGTEPKLRLMVEAEDEALAQASAQKLADSLGA	failed
MSQSQLLQKLASRLPLGVCVVDEHYQIIYWNEFFTDRLPTAKSDTQENNLLTLFPEAAKFLQKKINSVFVLNNASFSYWEHRPHVFDFSSSRPITGEETAMYQNIEFFPLDIEDHQVKTVCLIVQDVTELASYYQAQKCLSEQLEQEHTALSLLNKKLEAAQNQLLQSEKMVAIGQLAAGVAHEINNPIGFVNSNLQSLQDYNNKLLKLLNFYQKLTHKIGSVPYFTLEQDMLKRYQFEFICSDLPDLIRESIEGLDRVAVIVKSLKSFSHVDSSEWQYANVIEGIENTLKIAANQIKYKAVVLRNFQDNLPELYCQPMQLNQVFLNLLVNAAQAIEERGEISIDVSASDAEFIIVIRDTGSGIAASDLRKIFEPFYTTKLVGTGTGLGLSLSYSIVQKHKGEIKVSSVLGEGTAFTVILPILSPEDVA	failed
MSQSSDASEKEKPKEKKSQEELEKELDKELKKGGEPKTKKDDQIHKIGETFKAGHTNFTVNKVDRVQKGEYMNVGGAVNEETKTIKDDEERLIIEVTMENIGEDSISYNFIGFDLRDKNDQSVRPVFSIEEKGRILMGGTLVSGKKVTGVLSYVIPKGEQKHYTLVYNPFLADTNSSNTEERVKDDIDYLVKLDLEHHHHHH	not failed
MSQSSECARPHRRGFDFCASAVFLCTQRAQSVGGCAMRGCPLLLWRPETCQNPAPFCRGFAAQGFTAVSVVSRAVTKTTFFDENLIERVLWQFTMKEQRANAIPATCRYARYSANPTPTPRPVKINESDRTMNFEEKIATHYGHGNLTAAIRSGLQAQGITPEQASVEDLGPVDEFHIGGRAATVHFFDQIDLSETSKALDIGCGLGGAARYAAHSFGSQIEGIDLTPEYVETGGALCQWVGLSDKVNLSVASALSMPFESGDFDIAYMMHVGMNIEDKRALFKEVARVLKPGGTFAIYDIMRSNDEDLVYPVPWASSAETCCLAGPATYRAALEEGGFVVRQENDRRDFAIDFFEKMKKANAGQKSPPPLGLHVLMQQTTAEKIPNMIANLQAGRIKPVEIYAVKQ	failed
MSQSSKRKNDSVVETFKDIIPLTFGEEIGNAASHGAAALLTLFILPYAAVHSFNNGGTLESISVSVYVISIFMMFISSTIYHSMQNNTSHKYILRIIDHSMIYVAISGTYTPVLLSVVGGWLGWLVTILLWGTTLWGILYKSIATKVNHRLSLIVYLVMGWVGIIFLPIIIMRTSWWFIFFIFLGGLSYTIGAWFYAQKNKPYFHMIWHIFIVLASFLHMIGIFYFM	failed
MSQTLFWIAAACALAYLAMTARPASLMRSAVKTASVALLALMVLVSGGPVLLVLALALCALGDWLLSRETEATFMAGVGAFAAGHLAYVALFLTHPASDTGQLAAQWPLVAGLAALGLVMASLLAPRAGDLKGPVLAYVPIILGMGLAALTLPQAGVLAWVLPAAAAFIASDMILATEKFLLPPGHPALRLTPYLVWPLYWGAQMGFALALT	failed
MSQWTTVCKLDDILPGTGVCALVEQQQIAVFRPRNDEQVYAISNIDPFAQASVLSRGIVAEHQDDLWVASPLKKQHFRLYDGFCLEDGAYSVAAYDTQVTNGNVQISIADSDVAVDNSQPLPLEHHHHHH	not failed
MSRDLGRLLKIASNQMSTRFDIFAKKYDLTGTQMTIIDYLSRNKNKEVLQRDLESEFSIKSSTATVLLQRMEIKKLLYRKVSGKDSRQKCLKLTKKANKLETIILSYMDSDQSQMTSGLNKEEVVFLEKILKRMIESD	not failed
MSRDTVRPPCVHPGFARPLPARASLPFLGRVSPGDSSRRAGRDGRKWGMESGPAIFAGTVFALFGGGLLTWTVSRVRHRAPVAHDVNPVASATLAGLAAVSALVLGAWCFTHL	failed
